Numbering of substitutions follows the chain as printed. Numbers in names are those of the source. Where “and” joins values, the source holds several entries; their conditions need not be identical. Identical values can stand only once.
B1: HuAIP12 G104A variant antibody (antibody, V domains shown)
VH: EVQLVQSGAEVKKPGATVKISCKVSGYTFTDYSMHWVRQAPGKGLKWMGWINTETGEPTYADDFKGRFTFTLDTSTSTAYMELSSLRSEDTAVYYCARNYDYDAYFDVWGQGTTVTVSS
VL: DIQMTQSPSSLSASVGDRVTITCKASQDINKYIAWYQQKPGKAPKLLIHYTSTLQPGIPSRFSGSGSGRDYTFTISSLQPEDIATYYCLQYDNLLFTFGQGTKLEIK
notes: Human gamma-1 / kappa, transiently expressed in 293-H cells
B2: humanized monoclonal antibody HuAIP13 (antibody, IgG1, V domains shown)
VH: B1 VH with T55I
VL: B1 VL with S26D, I48L, Y50H, N93S
B3: humanized monoclonal antibody HuAIP12 (antibody, IgG1, V domains shown)
VH: B1 VH with A104G
VL: B1 VL
B4: murine monoclonal antibody AIP12 (antibody, V domains shown)
VH: QIQLVQSGPELKKPGETVKISCKASGYTFTDYSMHWVKQAPGKGLKWMGWINTETGEPTYADDFKGRFAFSLETSASTAYLQINNLKNEDTATYFCARNYDYDGYFDVWGAGTTVTVSS
VL: DIQMTQSPSSLSASLGGKVTITCKASQDINKYIAWYQHKPGKGPRLLIHYTSTLQPGIPSRFSGSGSGRDYSFSISNLEPEDIATYYCLQYDNLLFTFGSGTKLEIK
notes: Mouse hybridoma antibody; Mouse IgG1/kappa is used as its isotype control; also called MuAIP12; MUAIP12
B5: murine monoclonal antibody AIP13 (antibody, V domains shown)
VH: B4 VH with T55I, G104A
VL: B4 VL with S26D, K42R, I48L, Y50H, E81A, N93S
notes: Mouse hybridoma antibody; Mouse IgG1/kappa is used as its isotype control; also called MuAIP13

Key:
[1] = molecular target: T1, recombinant human IP-10 (R&D Systems) (human, UniProt P02778 22-98); assay: Biacore
T1 construct: Bought recombinant protein; also called CXCL10; rhIP-10
T1 sequence: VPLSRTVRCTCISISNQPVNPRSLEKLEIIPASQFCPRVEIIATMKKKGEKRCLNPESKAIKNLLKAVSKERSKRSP

[2] = molecular target: T1, recombinant human IP-10 (R&D Systems); assay: cell-based or functional assay
[3] = molecular target: T2, B lymphocyte chemokine (BLC) (UniProt O43927 23-109, limits assumed); assay: ELISA with hybridoma supernatants
T2 sequence (looked up): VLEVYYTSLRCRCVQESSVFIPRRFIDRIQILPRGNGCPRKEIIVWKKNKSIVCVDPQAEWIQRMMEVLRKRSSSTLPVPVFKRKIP

Row | Binder | fold faster off-rate (kd) than unmodified HuAIP12 [1] [fold] | fold higher Kd than unmodified HuAIP12 [1] [fold] | fold slower on-rate (ka) than unmodified HuAIP12 [1] [fold] | fold weaker monovalent interaction than unmodified HuAIP12 [1] [fold] | IC50 of inhibition of chemotaxis, donor 215 [2] [µg/mL] | IC50 of inhibition of chemotaxis, donor 318 [2] [µg/mL] | IC50 of inhibition of chemotaxis, donor 1012 [2] [µg/mL] | binding result [3] | IC50 of inhibition of chemotaxis, donor 1022 [2]
1 | B1 | ~2 | > 20 | ~10 | 20 | – | – | – | – | –
2 | B2 | – | – | – | – | 0.139 | 0.045 | 0.077 | – | –
3 | B3 | – | – | – | – | 0.142 | 0.038 | 0.073 | – | –
4 | B4 | – | – | – | – | 0.13 | 0.041 | 0.091 | no binding | 0.135 µg/mL and 0.051 µg/mL and 0.086 µg/mL
5 | B5 | – | – | – | – | 0.26 | 0.139 | 0.084 | no binding | 0.229 µg/mL and 0.154 µg/mL and 0.078 µg/mL

— patent US20080063646A1 (AbbVie / Abbott, published 2008)
